Results published in article PMC9343967 (Nature, 2021).
Where a chain is given by its changes, count along the chain named. Names may count otherwise.

T1: LTK_(TG–EGFL) (human LTK residues 63–420) (human, UniProt P29376 63-420)
T1 sequence (looked up): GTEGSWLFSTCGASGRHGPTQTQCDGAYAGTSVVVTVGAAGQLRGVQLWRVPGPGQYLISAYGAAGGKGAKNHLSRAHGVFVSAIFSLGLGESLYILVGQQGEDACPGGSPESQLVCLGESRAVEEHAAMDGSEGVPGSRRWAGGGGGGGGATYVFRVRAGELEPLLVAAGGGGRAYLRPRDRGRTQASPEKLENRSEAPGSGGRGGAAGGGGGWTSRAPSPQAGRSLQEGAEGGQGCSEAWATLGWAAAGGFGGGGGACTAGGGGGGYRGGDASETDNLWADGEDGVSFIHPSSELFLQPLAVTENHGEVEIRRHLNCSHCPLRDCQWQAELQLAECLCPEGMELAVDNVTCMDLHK

B1: ALKAL1 (residues 57–129, conserved C-terminal domain) (ligand, human, UniProt Q6UXT8 57-129, looked up)
chain: PSGSRSAEIFPRDSNLKDKFIKHFTGPVTFSPECSKHFHRLYYNTRECSTPAYYKRCARLLTRLAVSPLCSQT
B2: purified ALKAL1^F76E (used in Ba/F3 and SEC-MALLS assays) (ligand, human, UniProt Q6UXT8 57-129, looked up)
chain: B1 chain with F20E
B3: ALK_(TG–EGFL) (human ALK residues 648–1038) (domain or fragment, UniProt Q9UM73 648-1038, looked up)
chain: TAPKSRNLFERNPNKELKPGENSPRQTPIFDPTVHWLFTTCGASGPHGPTQAQCNNAYQNSNLSVEVGSEGPLKGIQIWKVPATDTYSISGYGAAGGKGGKNTMMRSHGVSVLGIFNLEKDDMLYILVGQQGEDACPSTNQLIQKVCIGENNVIEEEIRVNRSVHEWAGGGGGGGGATYVFKMKDGVPVPLIIAAGGGGRAYGAKTDTFHPERLENNSSVLGLNGNSGAAGGGGGWNDNTSLLWAGKSLQEGATGGHSCPQAMKKWGWETRGGFGGGGGGCSSGGGGGGYIGGNAASNNDPEMDGEDGVSFISPLGILYTPALKVMEGHGEVNIKHYLNCSHCEVDECHMDPESHKVICFCDHGTVLAEDGVSCIVSPTPEPHLPLSLILS
B4: ALKAL2 (residues 78–152, conserved C-terminal domain) (ligand, human, UniProt Q6UX46 78-152, looked up)
chain: PSPEQRVEIVPRDLRMKDKFLKHLTGPLYFSPKCSKHFHRLYHNTRDCTIPAYYKRCARLLTRLAVSPVCMEDKQ
B5: purified ALKAL2^F97E (used in Ba/F3 and SEC-MALLS assays) (ligand, human, UniProt Q6UX46 78-152, looked up)
chain: B4 chain with F20E
B6: ALKTG (human ALK residues 648–985) (domain or fragment, UniProt Q9UM73 648-985, looked up)
chain: TAPKSRNLFERNPNKELKPGENSPRQTPIFDPTVHWLFTTCGASGPHGPTQAQCNNAYQNSNLSVEVGSEGPLKGIQIWKVPATDTYSISGYGAAGGKGGKNTMMRSHGVSVLGIFNLEKDDMLYILVGQQGEDACPSTNQLIQKVCIGENNVIEEEIRVNRSVHEWAGGGGGGGGATYVFKMKDGVPVPLIIAAGGGGRAYGAKTDTFHPERLENNSSVLGLNGNSGAAGGGGGWNDNTSLLWAGKSLQEGATGGHSCPQAMKKWGWETRGGFGGGGGGCSSGGGGGGYIGGNAASNNDPEMDGEDGVSFISPLGILYTPALKVMEGHGEVNIKHYL

Key:
[1] = target: T1, LTK_(TG–EGFL) (human LTK residues …); experiment: SEC-MALS
[2] = target: T1, LTK_(TG–EGFL) (human LTK residues …); experiment: ITC
[3] = target: B3; experiment: ITC
[4] = target: B1; experiment: SEC-MALS
[5] = target: B3; experiment: SEC-MALS
[6] = target: full-length ALK ectodomain (ALKFL, residues 19–1038) (human, UniProt Q9UM73 19-1038); experiment: ITC
[7] = target: B1; experiment: ITC
[8] = target: B4; experiment: ITC

B1
stoichiometry N [1]: 2 receptors per cytokine
Kd [2]: 10 nM
Kd [3]: 600 nM

B2
stoichiometry N [1]: 1 receptor per cytokine

B3
stoichiometry N [4]: 1 receptor per cytokine

B4
stoichiometry N [1]: 2 receptors per cytokine
stoichiometry N [5]: 1 receptor per cytokine
Kd [2]: 55 nM
stoichiometry N [6]: 1 receptor per cytokine
Kd [3]: 40 nM

B5
stoichiometry N [5]: 1 receptor per cytokine

B6
fold reduction of affinity on removal of EGFL (against ALK_(TG–EGFL)) [7]: 4 fold
fold reduction of affinity on removal of EGFL (against ALK_(TG–EGFL)) [8]: 30 fold
